Common to all, as to assay: cell_activity
In data set [1] the test system is CCR5-specific ZFN pair (synthetic construct). The settings on record: K562, unsorted, Cel-1 assay; 37.5% after SSA sorting.
The subject of data set [2] is Factor IX-specific ZFN pair (synthetic construct). The settings on record: K562, unsorted, Cel-1 assay; 40.79% after SSA sorting.
The test system of data set [3] is WAS-specific ZFN pair (synthetic construct). The settings on record: K562, Cel-1 assay, day 3.

Substance CCR5 ZFN target site returned an activity in data set [1] of 25 % NHEJ.
Turning to Factor IX ZFN target site, the activity in data set [2] was 17.9 % NHEJ.
With WAS ZFN target site, the activity in data set [3] was 17.9 % NHEJ.

The values above are taken from patent US20110014616.
